Reference: patent US20210261643A1, “INHIBITORS OF P-TEFB MEDIATED TRANSCRIPTION” (The Regents of the University of California, priority 2018, published 2021)

Experiments:
[1] = system: HIV reactivation in J-Lat 9.2 cells; assay: HIV reactivation in J-Lat 9.2 latent infection model, FACS of GFP positive cells; assay type: cell-based; details: PMA 100 nM
Excerpt: FIGS. 4A and 4B. Stable expression of HT1 inhibits HIV reactivation. FIG. 4A: Stable expression of HT1 inhibits HIV reactivation from 2D10 cells. 3f:HT1 was stably expressed in 2D10 cells (D-HT cells). […] Error bars represent standard deviation from triplicate FACS analysis. FIG. 4B: Stable expression of HT1 inhibits HIV reactivation from J-Lat 9.2 cells. 3f:HT1 was stably expressed in J-Lat 9.2 cells (L-HT cells). […] Error bars represent standard deviation from triplicate FACS analysis.
To test the effect of HT1 on HIV-1 in T-lymphocyte derived cells, 3f:HT1 was stably expressed in HIV latent infection models 2D10 and J-Lat 9.2 cells (D-HT and L-HT cells respectively), which carry replication-defective, GFP-flagged HIV proviruses. In both 2D10 and J-Lat 9.2, the basal HIV transcription level is undetectable, as measured through GFP expression. Compounds such as the PKC agonist PMA, the histone deacetylase inhibitor SAHA or the BET bromodomain inhibitor JQ1 reactivate HIV transcription and increase GFP-positive cells detected by FACS analysis. 2D10 cells are more sensitive to HIV reactivation than J-Lat 9.2 cells, though they harbor a mutation in the N-terminal sequence of Tat (H13L). 2D10 and D-HT cells were incubated for 24 hrs with PMA (10 nM), SAHA (5 μM) or JQ1 (1 μM) and GFP positive cells were detected by FACS analysis. […]

[2] = system: host cell gene expression in 293T cells; assay: mRNA-seq analysis in 293T cells; assay type: cell-based
Excerpt: The specificity of HT1 was further investigated by mRNA-seq analysis in 293T cells. Only 48 genes were differentially expressed upon ectopic expression of HT1, while knocking out CycT1 as a control impacted 1673 genes.

[3] = system: CEM, MOLT4, and MT4 T cell lines; assay: Cell growth of T cell lines stably expressing HT1 (total viable cell count); assay type: cell-based; details: C-HT, MO-HT, MT-HT vs CEM, total viable cell count over time
Description: Finally, the impact of HT1 on cell growth was assessed using three T cell lines (CEM, MOLT4, and MT4) infected by a lentivirus expressing a triple Flag-epitope tagged HT1 (3f:HT1). Polyclonal population of HT1-expressing cells (C-HT, MO-HT, and MT-HT, respectively) was selected by puromycin and confirmed by BFP expression detected by FACS analysis and WB. […] This confirmed that HT1 was specific to HIV inhibition, and that the few off-target effects had little impact on the metabolism of the cells.

HIV TAR RNA = assay: RNA immunoprecipitation and RT-qPCR with TAR-specific primers in 293T cells; assay type: binding
Description: FIGS. 3A, 3B, 3C and 3D. HT1 prevents Tat from bringing active P-TEFb to TAR. FIG. 3A: HT1 inhibits the kinase activity of P-TEFb subunit CDK9. m:HT1 and/or f:Tat were transiently expressed in 293T cells. Cell lysates were used for IP using anti-Myc Ab (lanes 2-4), or control IgG (lane 1). Immunoprecipitates were incubated with ATP and recombinant GST-CTD proteins for in vitro kinase assay. Six replicate experiments were performed, and mean relative kinase activities are shown in the bar graph to the right. FIG. 3B: HT1 binds to TAR. m:HT1 or m:Tat (or empty vector, EV, as a control) was transiently co-expressed with TAR RNA-expressing pU16TAR in 293T cells. Cell lysates were used for IP using anti-Myc Ab or control IgG. RNA was purified from the immunoprecipitates and submitted to RT-qPCR using TAR-specific primers. Relative TAR enrichment was calculated as qPCR count using anti-Myc Ab minus using IgG, and normalized to EV. Error bars represent standard deviation from triplicate qPCR assays. […] Error bars represent standard deviation from triplicate qPCR assays. FIG. 3D: HT1 competes with Tat for TAR binding. m:HT1 and/or f:Tat were transiently co-expressed with TAR RNA-expressing pU16TAR in 293T cells. Cell lysates were used for IP using anti-Myc Ab or control IgG. RNA was purified from the immunoprecipitates and submitted to RT-qPCR using TAR-specific primers (upper panel). Relative TAR enrichment was calculated as qPCR count using anti-Myc Ab minus using IgG, and normalized to EV. Error bars represent standard deviation from triplicate qPCR assays.
Finally, since HEXIM1 ARM resembles the TAR-binding domain from Tat, we investigated whether HT1 could bind to HIV TAR. m:HT1 or m:Tat was co-expressed in 293T cells with TAR RNA, expressed under RNA Polymerase III dependent H1 promoter, and immunoprecipitated using anti-Myc Ab or IgG as a control. TAR RNAs co-immunoprecipitated with HT1 or Tat were quantified by RT-qPCR analysis. […] To test whether HT1 affects Tat-TAR interactions, increasing amounts of m:HT1 were also co-expressed with a fixed amount of f:Tat and TAR. […] As expected, HT1 also bound to endogenous 7SK snRNA.

P-TEFb (CycT1) = molecular target: T1, P-TEFb (CycT1) (Homo sapiens, UniProt O60563); assay: Co-immunoprecipitation of CycT1 from 293T cell lysates; assay type: binding
T1 construct: endogenous in cells; host or cells: 293T
Excerpt: We next investigated the mechanisms by which HT1 can prevent HIV gene expression.

T1 sequence (O60563 whole entry): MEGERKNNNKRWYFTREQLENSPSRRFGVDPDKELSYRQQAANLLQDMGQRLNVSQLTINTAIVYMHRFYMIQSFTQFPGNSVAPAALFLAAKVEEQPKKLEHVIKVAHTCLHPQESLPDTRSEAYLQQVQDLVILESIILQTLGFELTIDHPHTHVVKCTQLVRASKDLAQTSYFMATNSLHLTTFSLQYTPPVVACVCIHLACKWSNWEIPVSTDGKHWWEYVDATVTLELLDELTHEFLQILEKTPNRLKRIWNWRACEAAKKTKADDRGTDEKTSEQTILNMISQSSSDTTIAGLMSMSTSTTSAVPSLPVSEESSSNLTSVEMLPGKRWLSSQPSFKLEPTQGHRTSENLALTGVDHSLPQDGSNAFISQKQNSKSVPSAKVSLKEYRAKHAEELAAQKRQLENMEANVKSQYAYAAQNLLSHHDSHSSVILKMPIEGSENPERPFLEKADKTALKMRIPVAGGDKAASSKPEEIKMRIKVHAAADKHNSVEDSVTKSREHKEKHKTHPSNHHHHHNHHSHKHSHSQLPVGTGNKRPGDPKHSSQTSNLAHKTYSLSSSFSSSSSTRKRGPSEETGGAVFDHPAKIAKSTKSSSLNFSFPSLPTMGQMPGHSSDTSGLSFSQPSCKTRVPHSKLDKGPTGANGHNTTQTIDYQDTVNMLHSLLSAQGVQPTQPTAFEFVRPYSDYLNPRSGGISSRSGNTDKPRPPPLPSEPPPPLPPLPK
T1 sequence (P50750 whole entry partner): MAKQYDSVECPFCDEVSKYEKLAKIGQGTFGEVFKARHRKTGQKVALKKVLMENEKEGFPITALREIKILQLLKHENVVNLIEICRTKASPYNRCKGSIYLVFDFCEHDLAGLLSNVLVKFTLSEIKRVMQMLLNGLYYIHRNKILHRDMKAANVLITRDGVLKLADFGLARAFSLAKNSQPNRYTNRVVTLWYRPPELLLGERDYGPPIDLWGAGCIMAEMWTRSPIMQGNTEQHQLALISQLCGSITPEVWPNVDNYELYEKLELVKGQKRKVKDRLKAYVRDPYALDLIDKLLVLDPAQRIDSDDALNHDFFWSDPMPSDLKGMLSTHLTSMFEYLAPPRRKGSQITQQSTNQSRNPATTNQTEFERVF

B1: HT1 (protein)
chain: KKKHRRRPSKKKRHWKPYYKLTWEEKKKFDEKQSLRASRIRAEMFAKGQPVAPYNTTQFLMDDHDQEEPDLVDMEPVDPYLEPWKHPGSQPRTACNNCYCKKCCFHCYACFTRKGLGISYG
modifications: left off: small tags and cut ends
With B1 the “decrease of GFP expression in L-HT compared to J-Lat 9.2” value [1] was 94%, the “genes differentially expressed upon ectopic expression” value [2] was 48 genes and the “7SK RNA fold-change” value ([2]; padj=9.6E−06) was 1.1. The “cellular growth rate versus control cells” value [3] was “no difference”, the “immunoprecipitation of TAR RNA (in words)” value (HIV TAR RNA; 293T cells, anti-Myc Ab, RT-qPCR) was “immunoprecipitated TAR” and the “amounts of TAR RNA co-immunoprecipitated with f:Tat” value (HIV TAR RNA; fixed amount of f:Tat and TAR, increasing m:HT1, anti-Flag Ab) was “decreased progressively”. The “TAR bound, normalized by protein levels of m:HT1 and m:Tat” value (HIV TAR RNA; normalized to protein in input lysate) was “at least as much TAR as m:Tat”, the “amounts of CycT1 co-immunoprecipitating with f:Tat” value (P-TEFb (CycT1); fixed amount of f:Tat, increasing amounts of m:HT1) was “decreased” and the “binding to CycT1 by co-immunoprecipitation” value (P-TEFb (CycT1); transient expression in 293T cells, anti-Myc or anti-Flag Abs) was “bound to CycT1”.
